The target of data set [1] is T1, PaMarR (Paenisporosarcina sp. TG-14, UniProt A0A8J9SKQ8).
T1 construct: gene E2636_00495; N-terminal His6 tag (pET-28a(+), NdeI/XhoI) removed with thrombin; E. coli BL21(DE3); gene primer start TTGGATAAGAGAATAC (N-terminus M/L-DKRI)
Kind of data set: X-ray crystal structure. In kind it is binding. The settings on record: 1.6 A; co-purified from expression culture, not added; identity assigned from electron density; deep cavity in dimerization domain (helices a1, a6, a7), putative effector site; ammonium citrate pH 7.0.

For data set [2], the target named is MarR protein from Paenisporosarcina sp. TG-14 (Paenisporosarcina sp. TG-14). The data set is described as follows: AUC; analytical ultracentrifugation at 40 000 rev/min, 20°C, detection at 280 nm, analysed with SEDFIT; one peak at a sedimentation coefficient of about 2.5 (31.3 kDa).
Data set [3] has as its target T2, PaMarR (Paenisporosarcina sp. TG-14, UniProt A0A8J9SKQ8 1-147).
T2 sequence: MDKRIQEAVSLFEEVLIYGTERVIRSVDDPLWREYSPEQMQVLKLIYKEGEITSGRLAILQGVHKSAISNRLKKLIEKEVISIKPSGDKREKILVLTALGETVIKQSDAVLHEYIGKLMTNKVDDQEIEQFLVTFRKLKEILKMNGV
The data set is described as follows: EMSA; 0.3-2.1 uM PaMarR, 0.5 uM duplex; B1 (one site) at low, B2 (both sites) at high protein; protein contains palmitate; EMSA: Dulbecco's PBS, 12% (v/v) glycerol, 0.5 uM duplex, 15 min at 37 C, 20 ul; 8% native PAGE with 5% glycerol in Tris-borate; pH not stated. Conditions: protein: recombinant; tags: N-terminal His6 (pET-28a NdeI/XhoI), removed with thrombin; chain copies: 2; label: none (GelRed stain); as printed: 52 bp duplex, 3' overhang 13 nt on strand 1 (second strand may be printed incompletely; Methods say complementary oligos).

This note sets out measurements from publication PMC8420766, “Crystal structure of a MarR family protein from the psychrophilic bacterium Paenisporosarcina sp. TG-14 in complex with a lipid-like molecule” (IUCrJ, 2021).

Take `CCCCCCCCCCCCCCCC(=O)O` [palmitic acid]: the X-ray crystal structure entry in data set [1] was “a model of palmitic acid containing a 16-carbon chain was built, which had the best fit”. As for “MarR protein from Paenisporosarcina sp. TG-14 (natural protein)”, in data set [2], the stoichiometry N (as a rule, a count of units in the complex or per binding partner) was 2.

B1: Palindrome probe (putative binding sites 1 and 2) (dsDNA)
DNA 1: TTTTAATAGTTCACCCCCTAAACTAACGTTATTGGTTTAGGGGGTGAACTATTATGCCCCCCATA
DNA 2: ATAGTTCACCCCCTAAACCAATAACGTTAGTTTAGGGGGTGAACTATTAAAA
Consider B1, for which the binding result in data set [3] is recorded as “binds”.
